One molecule from US20050063948A1 (published 2005) can be followed below.

The test deals with T1, αvβ3 integrin on the surface of M21 human melanoma cells (human, UniProt P06756 31-1048; P05106 27-788).
T1 construct: whole, on cells; also called αvβ3 integrin heterodimer
Kind of test: immunofluorescence on M21 cells, detected with anti-mouse IL-12 p40 antibody and FITC secondary. The text has this: The specificity of mrIL-12vp binding to αᵥβ₃ integrin-positive cell lines was subsequently determined. M21, a human melanoma line which expresses αᵥβ₃ integrin on its surface (Felding-Habermann, et al. (1992) J. Clin. Invest. 89:2018-2022), was used as a αᵥβ₃ integrin-positive cell line for this analysis. Prior to the studies with mrIL-12vp, the expression of αᵥβ₃ integrin was confirmed based on intense labeling of M21 cells with the anti-αᵥβ₃ integrin antibody LM609 using flow cytometry. […] Immunofluorescence evaluation of cells grown on chamber slides confirmed specific binding of mrIL-12vp, but not mrIL-12 to M21 cells. There was no binding of mrIL-12 or mrIL-12vp to Saos-2 cells.
Immunofluorescence labeling was performed in accordance with standard methods (Teng, et al. (2002) Am. J. Physiol. Renal Physiol. 282:F1075-F1083). M21 or Saos-2 cells were incubated with 5 μg of either mrIL-12 or mrIL-12vp for 30 minutes at 37 C in a 5% CO₂ atmosphere. The cells were rinsed with PBS, and then fixed with freshly prepared 4% paraformaldehyde for 10 minutes at room temperature. Detection of mrIL-12 or mrIL-12vp binding to cells used an anti-mouse IL-12 p40 antibody, followed by three washes with PBS and incubation with FITC-conjugated goat anti-mouse IgG (1:200) for 1 hour in the dark. As a control, anti-mouse IL-12 p40 was omitted from the labeling process.

T1 sequence (P06756 31-1048, chain 1 of 2): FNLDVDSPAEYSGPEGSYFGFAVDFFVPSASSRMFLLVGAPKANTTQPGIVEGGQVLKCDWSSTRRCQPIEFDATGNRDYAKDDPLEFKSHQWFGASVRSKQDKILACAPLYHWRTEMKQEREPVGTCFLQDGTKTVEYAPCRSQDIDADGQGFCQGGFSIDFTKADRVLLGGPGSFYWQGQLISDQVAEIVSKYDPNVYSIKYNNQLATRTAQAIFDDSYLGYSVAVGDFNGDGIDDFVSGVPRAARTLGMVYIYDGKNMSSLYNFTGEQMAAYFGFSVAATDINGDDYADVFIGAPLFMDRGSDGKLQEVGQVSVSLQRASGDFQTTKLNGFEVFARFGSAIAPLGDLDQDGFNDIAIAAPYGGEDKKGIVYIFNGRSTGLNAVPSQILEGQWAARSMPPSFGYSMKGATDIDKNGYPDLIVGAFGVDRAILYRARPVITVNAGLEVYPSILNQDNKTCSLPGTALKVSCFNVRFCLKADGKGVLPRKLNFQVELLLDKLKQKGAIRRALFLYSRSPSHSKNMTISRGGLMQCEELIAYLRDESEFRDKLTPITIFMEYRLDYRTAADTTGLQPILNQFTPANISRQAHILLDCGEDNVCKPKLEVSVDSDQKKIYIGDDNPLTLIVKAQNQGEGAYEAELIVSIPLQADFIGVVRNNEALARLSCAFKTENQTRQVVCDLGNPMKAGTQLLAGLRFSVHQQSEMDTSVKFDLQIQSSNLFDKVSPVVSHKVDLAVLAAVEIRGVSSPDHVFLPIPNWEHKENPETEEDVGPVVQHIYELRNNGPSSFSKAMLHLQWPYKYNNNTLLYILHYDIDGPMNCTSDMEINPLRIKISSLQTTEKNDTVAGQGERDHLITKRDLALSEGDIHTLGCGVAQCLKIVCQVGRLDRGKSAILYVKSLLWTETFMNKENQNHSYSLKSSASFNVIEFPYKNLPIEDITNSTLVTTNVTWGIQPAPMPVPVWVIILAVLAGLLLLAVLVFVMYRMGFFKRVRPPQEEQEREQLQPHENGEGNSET
T1 sequence (P05106 27-788, chain 2 of 2): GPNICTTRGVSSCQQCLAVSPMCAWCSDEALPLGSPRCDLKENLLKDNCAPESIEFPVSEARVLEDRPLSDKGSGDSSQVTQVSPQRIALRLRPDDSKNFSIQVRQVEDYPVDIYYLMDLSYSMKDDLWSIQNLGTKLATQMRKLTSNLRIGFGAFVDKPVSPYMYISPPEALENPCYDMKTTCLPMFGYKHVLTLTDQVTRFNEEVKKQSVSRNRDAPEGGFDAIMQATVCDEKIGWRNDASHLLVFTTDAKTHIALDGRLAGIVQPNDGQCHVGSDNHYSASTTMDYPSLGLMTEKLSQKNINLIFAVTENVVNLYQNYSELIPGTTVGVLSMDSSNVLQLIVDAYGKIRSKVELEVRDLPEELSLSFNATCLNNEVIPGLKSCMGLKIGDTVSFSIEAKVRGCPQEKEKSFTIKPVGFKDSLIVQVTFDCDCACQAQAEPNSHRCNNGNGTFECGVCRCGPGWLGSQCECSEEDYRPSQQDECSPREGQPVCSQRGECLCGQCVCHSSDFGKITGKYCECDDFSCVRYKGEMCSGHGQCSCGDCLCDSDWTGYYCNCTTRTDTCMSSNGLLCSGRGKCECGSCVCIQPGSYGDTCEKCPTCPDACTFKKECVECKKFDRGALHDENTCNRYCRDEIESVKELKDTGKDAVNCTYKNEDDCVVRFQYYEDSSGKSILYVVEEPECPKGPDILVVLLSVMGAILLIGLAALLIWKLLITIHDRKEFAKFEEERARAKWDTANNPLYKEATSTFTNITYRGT

B1: murine recombinant IL-12 (mrIL-12) (ligand, mouse)
chain 1: RVIPVSGPARCLSQSRNLLKTTDDMVKTAREKLKHYSCTAEDIDHEDITRDQTSTLKTCLPLELHKNESCLATRETSSTTRGSCLPPQKTSLMMTLCLGSIYEDLKMYQTEFQAINAALQNHNHQQIILDKGMLVAIDELMQSLNHNGETLRQKPPVGEADPYRVKMKLCILLHAFSTRVVTINRVMGYLSSA
chain 2: MWELEKDVYVVEVDWTPDAPGETVNLTCDTPEEDDITWTSDQRHGVIGSGKTLTITVKEFLDAGQYTCHKGGETLSHSHLLLHKKENGIWSTEILKNFKNKTFLKCEAPNYSGRFTCSWLVQRNMDLKFNIKSSSSSPDSRAVTCGMASLSAEKVTLDQRDYEKYSVSCQEDVTCPTAEETLPIELALEARQQNKYENYSTSFFIRDIIKPDPPKNLQMKPLKNSQVEVSWEYPDSWSTPHSYFSLKFFVRIQRKKEKMKETEEGCNQKGAFLVEKTSTEVQCKGGNVCVQAQDRYYNSSCSKWACVPCRVRS
notes: Bought
B1: the binding result is on record as “no binding (tested: 5 µg)”.
